Positions count from the first letter of the chain named. Numbers in names are those of the source.

Sequences and labels used below:
T1: EsCas13d, nuclease-dead (Eubacterium siraeum, UniProt B0MS50, R295A;H300A;R849A;H854A)
T1 sequence: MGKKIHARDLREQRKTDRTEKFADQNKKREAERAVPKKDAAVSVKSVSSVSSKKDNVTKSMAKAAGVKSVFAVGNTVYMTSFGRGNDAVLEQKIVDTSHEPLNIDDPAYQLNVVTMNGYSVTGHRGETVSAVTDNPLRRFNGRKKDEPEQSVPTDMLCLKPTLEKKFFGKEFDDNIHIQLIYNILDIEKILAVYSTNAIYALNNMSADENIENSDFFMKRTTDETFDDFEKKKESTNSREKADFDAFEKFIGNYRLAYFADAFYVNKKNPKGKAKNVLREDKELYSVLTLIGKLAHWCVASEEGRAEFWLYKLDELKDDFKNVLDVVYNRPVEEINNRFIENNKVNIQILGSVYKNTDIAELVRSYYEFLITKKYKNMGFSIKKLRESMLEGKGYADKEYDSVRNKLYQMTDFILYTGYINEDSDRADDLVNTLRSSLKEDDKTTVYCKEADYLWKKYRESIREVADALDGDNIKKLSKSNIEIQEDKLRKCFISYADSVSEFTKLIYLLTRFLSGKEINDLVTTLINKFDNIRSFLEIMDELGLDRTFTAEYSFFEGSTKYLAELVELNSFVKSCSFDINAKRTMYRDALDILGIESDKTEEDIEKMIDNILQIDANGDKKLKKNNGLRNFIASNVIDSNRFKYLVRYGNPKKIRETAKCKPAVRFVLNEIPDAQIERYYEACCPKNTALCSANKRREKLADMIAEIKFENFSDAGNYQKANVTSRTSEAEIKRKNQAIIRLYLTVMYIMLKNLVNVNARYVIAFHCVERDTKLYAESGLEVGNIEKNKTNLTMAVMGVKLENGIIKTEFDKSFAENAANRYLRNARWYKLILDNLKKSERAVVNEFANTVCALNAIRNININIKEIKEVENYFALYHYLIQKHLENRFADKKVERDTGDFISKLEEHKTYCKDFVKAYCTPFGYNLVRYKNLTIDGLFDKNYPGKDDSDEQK

B1: target 1 MT 5'PFS GGC 3'PFS ACG (mixed)
RNA 1: CACCCGUGCAAAAAUGCAGGGGUCUAAAACUGAGCGGAUAACCUCUCUAUGG
RNA 2: GGGAAUGGAUCCACAUCUACGAAUUCGGCCCAUAGAGAGGUUAUCCGCUCAACGAGAUCGGAAGAGCACACGU
B2: target 1 insC 3' of 20,insC 3' of 18 (mixed)
RNA 1: B1 RNA 1
RNA 2: GGGAAUGGAUCCACAUCUACGAAUUCGUACCACUACGAGAGGUUAUCCGCUCACCGAGAUCGGAAGAGCACACGU
B3: target 1 MT 5'PFS UAG 3'PFS CGA (mixed)
RNA 1: B1 RNA 1
RNA 2: B1 RNA 2 with G27U, G28A, C29G, A52C, C53G, G54A
B4: target 1 C21U,C22A (mixed)
RNA 1: B1 RNA 1
RNA 2: B1 RNA 2 with G28U, C29A, C30A, C31U, A52C
B5: target 1 MT 5'PFS GGA 3'PFS AGU (mixed)
RNA 1: B1 RNA 1
RNA 2: B1 RNA 2 with C29A, C53G, G54U
B6: target 1 MT 5'PFS UCG 3'PFS UGU (mixed)
RNA 1: B1 RNA 1
RNA 2: B1 RNA 2 with G27U, G28C, C29G, A52U, C53G, G54U
B7: target 1 MT 5'PFS GGC 3'PFS UUA (mixed)
RNA 1: B1 RNA 1
RNA 2: B1 RNA 2 with A52U, C53U, G54A
B8: target 1 MT 5'PFS GAA 3'PFS UGC (mixed)
RNA 1: B1 RNA 1
RNA 2: B1 RNA 2 with G28A, C29A, A52U, C53G, G54C
B9: target 1 MT 5'PFS AAG 3'PFS AGA (mixed)
RNA 1: B1 RNA 1
RNA 2: B1 RNA 2 with G27A, G28A, C29G, C53G, G54A
B10: target 1 MT 5'PFS CCU 3'PFS AAA (mixed)
RNA 1: B1 RNA 1
RNA 2: B1 RNA 2 with G27C, G28C, C29U, C53A, G54A
B11: target 1 MT 5'PFS GAA 3'PFS UGA (mixed)
RNA 1: B1 RNA 1
RNA 2: B1 RNA 2 with G28A, C29A, A52U, C53G, G54A
B12: target 1 MT 5'PFS GAA 3'PFS UGU (mixed)
RNA 1: B1 RNA 1
RNA 2: B1 RNA 2 with G28A, C29A, A52U, C53G, G54U
B13: target 1 C4A (mixed)
RNA 1: B1 RNA 1
RNA 2: B1 RNA 2 with G28U, C29A, C48A, A52C
B14: target 1 MT 5'PFS UAG 3'PFS CGU (mixed)
RNA 1: B1 RNA 1
RNA 2: B1 RNA 2 with G27U, G28A, C29G, A52C, C53G, G54U
B15: target 1 MT 5'PFS GCG 3'PFS UGA (mixed)
RNA 1: B1 RNA 1
RNA 2: B1 RNA 2 with G28C, C29G, A52U, C53G, G54A
B16: target 1 MT 5'PFS ACU 3'PFS AUU (mixed)
RNA 1: B1 RNA 1
RNA 2: B1 RNA 2 with G27A, G28C, C29U, C53U, G54U
B17: target 1 MT 5'PFS GCA 3'PFS CGC (mixed)
RNA 1: B1 RNA 1
RNA 2: B1 RNA 2 with G28C, C29A, A52C, C53G, G54C
B18: target 1 MT 5'PFS GGA 3'PFS AGC (mixed)
RNA 1: B1 RNA 1
RNA 2: B1 RNA 2 with C29A, C53G, G54C
B19: target 1 MT 5'PFS UAG 3'PFS CGG (mixed)
RNA 1: B1 RNA 1
RNA 2: B1 RNA 2 with G27U, G28A, C29G, A52C, C53G
B20: target 1 MT 5'PFS AAU 3'PFS AAU (mixed)
RNA 1: B1 RNA 1
RNA 2: B1 RNA 2 with G27A, G28A, C29U, C53A, G54U
B21: target 1 MT 5'PFS UCA 3'PFS UUA (mixed)
RNA 1: B1 RNA 1
RNA 2: B1 RNA 2 with G27U, G28C, C29A, A52U, C53U, G54A
B22: target 1 MT 5'PFS UCA 3'PFS UUG (mixed)
RNA 1: B1 RNA 1
RNA 2: B1 RNA 2 with G27U, G28C, C29A, A52U, C53U
B23: target 1 MT 5'PFS GGA 3'PFS GGU (mixed)
RNA 1: B1 RNA 1
RNA 2: B1 RNA 2 with C29A, A52G, C53G, G54U
B24: target 1 MT 5'PFS GAA 3'PFS AAC (mixed)
RNA 1: B1 RNA 1
RNA 2: B1 RNA 2 with G28A, C29A, C53A, G54C
B25: target 1 MT 5'PFS ACG 3'PFS CUA (mixed)
RNA 1: B1 RNA 1
RNA 2: B1 RNA 2 with G27A, G28C, C29G, A52C, C53U, G54A
B26: target 1 MT 5'PFS CUC 3'PFS CGA (mixed)
RNA 1: B1 RNA 1
RNA 2: B1 RNA 2 with G27C, G28U, A52C, C53G, G54A
B27: target 1 MT 5'PFS GUG 3'PFS CUU (mixed)
RNA 1: B1 RNA 1
RNA 2: B1 RNA 2 with G28U, C29G, A52C, C53U, G54U
B28: target 1 MT 5'PFS GGC 3'PFS ACA (mixed)
RNA 1: B1 RNA 1
RNA 2: B1 RNA 2 with G54A
B29: target 1 MT 5'PFS GCG 3'PFS UGC (mixed)
RNA 1: B1 RNA 1
RNA 2: B1 RNA 2 with G28C, C29G, A52U, C53G, G54C
B30: target 1 MT 5'PFS GCA 3'PFS CGU (mixed)
RNA 1: B1 RNA 1
RNA 2: B1 RNA 2 with G28C, C29A, A52C, C53G, G54U
B31: target 1 MT 5'PFS CCU 3'PFS AAC (mixed)
RNA 1: B1 RNA 1
RNA 2: B1 RNA 2 with G27C, G28C, C29U, C53A, G54C
B32: target 1 MT 5'PFS AAG 3'PFS AGG (mixed)
RNA 1: B1 RNA 1
RNA 2: B1 RNA 2 with G27A, G28A, C29G, C53G
B33: target 1 MT 5'PFS GGA 3'PFS GGG (mixed)
RNA 1: B1 RNA 1
RNA 2: B1 RNA 2 with C29A, A52G, C53G
B34: target 1 MT 5'PFS GUG 3'PFS CUA (mixed)
RNA 1: B1 RNA 1
RNA 2: B1 RNA 2 with G28U, C29G, A52C, C53U, G54A
B35: target 1 MT 5'PFS GGC 3'PFS UUC (mixed)
RNA 1: B1 RNA 1
RNA 2: B1 RNA 2 with A52U, C53U, G54C
B36: target 1 MT 5'PFS GUG 3'PFS CUC (mixed)
RNA 1: B1 RNA 1
RNA 2: B1 RNA 2 with G28U, C29G, A52C, C53U, G54C
B37: target 1 MT 5'PFS ACG 3'PFS CUG (mixed)
RNA 1: B1 RNA 1
RNA 2: B1 RNA 2 with G27A, G28C, C29G, A52C, C53U
B38: target 1 MT 5'PFS CUG 3'PFS UAC (mixed)
RNA 1: B1 RNA 1
RNA 2: B1 RNA 2 with G27C, G28U, C29G, A52U, C53A, G54C

The data set concerns the target T1, EsCas13d, nuclease-dead. Description: crRNA (strand 1, pre-loaded); Mg2+; 40 mM Tris-HCl pH 7.5, 150 mM NaCl, 6 mM MgCl2, 1 mM DTT, 0.1% Tween-20, 0.2 mg/ml BSA; 25 C; 10 min per concentration, then washed. The conditions noted are these: tags: His6-TwinStrep-SUMO cleaved; N-terminal SNAP kept (SNAP-Surface 488); label: 3' end held by stalled T7 RNA polymerase.
Broadly, the Kd is a measure of binding affinity in units of concentration. Higher therefore signals weaker binding. B1: the dissociation constant (Kd) worked out at 0.0135 ± 0.00285 µM.

Regarding B2, the affinity, expressed as Kd, was 0.0061 ± 0.0005 µM.

Molecule B3 displayed an equilibrium dissociation constant (Kd) of 0.027 ± 0.006 µM.

Take B4: the Kd was determined as 0.0289 ± 0.002 µM.

On to B5, for which the affinity, expressed as Kd, was 0.022 ± 0.0037 µM.

Take B6: the affinity, expressed as Kd, was 0.057 ± 0.022 µM.

As to B7, binding was put at a Kd of 0.0117 ± 0.00255 µM.

Consider B8, for which the Kd was 0.0109 ± 0.00205 µM.

Regarding B9, the equilibrium dissociation constant (Kd) is 0.038 ± 0.014 µM.

In turn, B10 gave a Kd of 0.0595 ± 0.02 µM.

The molecule B11 displayed a Kd of 0.0305 ± 0.009 µM.

B12 registered a Kd of 0.0565 ± 0.0145 µM.

The molecule B13 registered an equilibrium dissociation constant (Kd) of 0.0038 ± 0.0004 µM.

The molecule B14 gave a Kd of 0.0635 ± 0.028 µM.

For B15, the dissociation constant (Kd) amounted to 0.0208 ± 0.00775 µM.

Molecule B16 showed a Kd of 0.053 ± 0.026 µM.

B17 showed a Kd of 0.071 ± 0.027 µM.

Turning to B18, binding was put at a Kd of 0.0156 ± 0.0029 µM.

For B19, the equilibrium dissociation constant (Kd) is 0.055 ± 0.01 µM.

The molecule B20 returned a Kd of 0.038 ± 0.017 µM.

For the molecule B21, the Kd was determined as 0.0108 ± 0.00225 µM.

With B22, the dissociation constant (Kd) was determined as 0.037 ± 0.0095 µM.

For the molecule B23, the equilibrium dissociation constant (Kd) is 0.045 ± 0.018 µM.

Molecule B24 had a Kd of about 0.047 µM.

B25 yielded a Kd of about 0.032 µM.

B26 gave a Kd of 0.08 ± 0.04 µM.

The molecule B27 showed a dissociation constant (Kd) of 0.0102 ± 0.0009 µM.

Turning to B28, the Kd is 0.02 ± 0.01 µM.

In turn, B29 returned a Kd of 0.0225 ± 0.0065 µM.

In the case of B30, the Kd worked out at 0.0114 ± 0.0022 µM.

As for B31, binding was put at a Kd of 0.018 ± 0.0045 µM.

For B32, the Kd is 0.0605 ± 0.0225 µM.

B33 yielded a Kd of 0.054 ± 0.018 µM.

Molecule B34 displayed an equilibrium dissociation constant (Kd) of 0.0163 ± 0.002 µM.

For the molecule B35, the dissociation constant (Kd) worked out at 0.0129 ± 0.0024 µM.

B36 yielded a dissociation constant (Kd) of 0.0194 ± 0.00275 µM.

Molecule B37 had a Kd of 0.0535 ± 0.023 µM.

Turning to B38, the Kd was found to be 0.0041 ± 0.0007 µM.

These data come from publication PMC10786891, “Massively parallel profiling of RNA-targeting CRISPR-Cas13d”.
